Changes are numbered by the printed parent chain. Names and notes keep the numbering of the source. Where two headings read alike, the source gives them in different places.
Tests used:
rhNav1.7α = rhNav1.7α (rhesus monkey, UniProt Q15858 1-1988 (human entry)); experiment: cell-based or functional assay
huNav1.7α [1] = molecular target: T1, huNav1.7α (human, UniProt Q15858 1-1988); experiment: cell-based or functional assay
huNav1.7α+β1 [2] = molecular target: T2, huNav1.7α+β1 (human, UniProt Q15858 1-1988; Q07699 19-218); experiment: cell-based or functional assay
rhNav1.7α+β1-β2-β3 [3] = molecular target: T3, rhNav1.7α+β1-β2-β3 (rhesus monkey α subunit with human β …); experiment: cell-based or functional assay
rhNav1.7α+β1-β2-β3 [4] = molecular target: T3, rhNav1.7α+β1-β2-β3; experiment: binding FACS, CHO FlpIn cells
huNav1.7α+β1 [5] = molecular target: T2, huNav1.7α+β1; experiment: binding FACS, HEKa/β1 cells
huNav1.7α [6] = molecular target: T1, huNav1.7α; experiment: binding FACS, HEKa cells
huNav1.7α+β1 [7] = molecular target: T2, huNav1.7α+β1; experiment: binding FACS, HEKa/β1 cells; remark: listed apart in the source
Outline: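 Flow cytometry read-out of anti-Flag signal on propidium iodide-negative cells measured ISVD binding. Purified FLAG3-tagged ISVD, diluted in PBS with 10% FBS and NaN₃, was applied to the cells for 30 minutes at 4° C.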

huNav1.7α [8] = molecular target: T1, huNav1.7α; experiment: binding FACS, HEKa cells; remark: listed apart in the source
Description: Binding of the ISVDs to cell-expressed Nav1.7α was detected via murine anti-Flag (Sigma, catalog #F1804). Briefly, cells were resuspended in FACS buffer (PBS, 10% FBS, NaN₃) and transferred to a 96-well V-bottom plate at 1×10^5 cells/well. Purified FLAG3-tagged ISVD was diluted in FACS buffer and added to the cells for 30 minutes at 4° C. […] Prior to the read-out, the samples were resuspended in 1 μg/mL propidium iodide (Sigma, catalog #P4170) to exclude dead cells. Between each step, the cells were centrifuged for 5 minutes at 200 grams and washed with 100 μL/well FACS buffer.

huNav1.7α+β1-β2-β3 = molecular target: T4, huNav1.7α+β1-β2-β3 (human, UniProt Q15858 1-1988; Q07699 19-218; O60939 30-215; Q9NY72 23-215); experiment: binding FACS, HEK FlpIn cells
T4 construct: 5N11S variant; also called huNav1.7-beta1-beta2-beta3; huNav1.7α+Navβ1-Navβ2-Navβ3

huNav157chim14 = molecular target: T5, huNav157chim14 (human); experiment: binding FACS, HEK Flp-In
T5 construct: HEK Flp-In cells; also called huNav157 chimera 14

huNav1.7α + β1-β2-β3 = molecular target: T6, huNav1.7α + β1-β2-β3 (human, UniProt Q15858 1-1988; A5A6L6 19-218; O60939 30-215; Q2KI11 23-215); experiment: competition FACS vs EC25 of F103275B05(N93R), HEK FlpIn
T6 construct: also called huNav1.7-beta1-beta2-beta3; huNav1.7-β1-β2-β3

huNav1.7α [9] = molecular target: T7, huNav1.7α (human, UniProt Q15858 1-1988); experiment: competition FACS vs EC25 of F103275B05(N93R), HEK
T7 construct: HEK cells expressing the α subunit without β subunits; also called huNav1.7 (alpha-subunit); Human Nav1.7α

huNav1.7α + β1 = molecular target: T8, huNav1.7α + β1 (human); experiment: competition FACS vs EC25 of F103275B05(N93R), HEK
T8 construct: HEK293 cells; also called huNav1.7-beta1; huNav1.7-β1

B1: F010300659 (VHH)
VHH: EVQLVESGGGLVQPGGSLRLSCAASGPVFNINSMAWYRRAPGKQRELVAYSTPGWDWNYADSVKGRFTISRDNAKRVYLQMNSLTPEDTAVYYCRWLLQPSIYDISRTYWGQGTLVTVSS
notes: also called F0103275B05(S27P, I28V, S50Y, N53P, G55W, S56D, T57W, N93R, A94W)+FLAG3-HIS6
With B1 the “2-pulse IC50 [M], P1” value (rhNav1.7α) was 1e-06 M, the “2-pulse IC50 [M], P2” value (rhNav1.7α) was 7e-07 M and the “2-pulse IC50 [M], P1” value (huNav1.7α [1]) was 1e-06 M. For the same binder, the “2-pulse IC50 [M], P2” value (huNav1.7α [1]) was 8e-07 M, the “single pulse IC50” value (huNav1.7α+β1 [2]) was 85 nM and the “single pulse IC50” value (rhNav1.7α+β1-β2-β3 [3]) was 180 nM. It also gave an EC50 (rhNav1.7α+β1-β2-β3 [4]) of 55 nM, an EC50 (huNav1.7α+β1 [5]) of 27 nM and an EC50 (huNav1.7α [6]) of 9.7 nM.

B2: F010300990 (VHH)
VHH: B1 VHH with S33R, W55G, D56S, W57T, R95N, W96A, T108I
notes: vs F0103275B05: S27P, I28V, S33R, S50Y, N53P, T101I
B2 was tested, and the “single pulse IC50” value (huNav1.7α+β1 [2]) was 250 nM, the “single pulse IC50” value (rhNav1.7α+β1-β2-β3 [3]) was 100 nM and the EC50 (rhNav1.7α+β1-β2-β3 [4]) was 38 nM. It also gave an EC50 (huNav1.7α+β1 [5]) of 65 nM and an EC50 (huNav1.7α [6]) of 4.3 nM.

B3: F010300534 (VHH)
VHH: EVQLVESGGGLVQPGGSLRLSCAASGMLFNANTQGWYRQAPGKQRELVAFIFSGGYVNYVDSVKGRFTISRDNAKRTMYLQMNSLKPEDSAIYYCSLSRYLGQGTLVTVSS
notes: vs F0103265A11: T57V
For B3, the “Bmax relative to '535” value (huNav1.7α+β1 [7]) was 62%, the EC50 (huNav1.7α+β1 [7]) was 11 nM and the binding result (huNav1.7α [8]) was “no binding”. The EC50 (huNav1.7α+β1-β2-β3) was 72 nM.

B4: F010300535 (VHH)
VHH: B3 VHH with S53W, V57T
notes: vs F0103265A11: S53W
With B4 the “Bmax relative to '535” value (huNav1.7α+β1 [7]) was 100%, the EC50 (huNav1.7α+β1 [7]) was 5.5 nM and the EC50 (huNav1.7α [8]) was 720 nM. The EC50 (huNav1.7α+β1-β2-β3) was 16 nM.

B5: F010300536 (VHH)
VHH: B3 VHH with V57T, N58T
notes: vs F0103265A11: N58T
For B5, the “Bmax relative to '535” value (huNav1.7α+β1 [7]) was 77%, the EC50 (huNav1.7α+β1 [7]) was 9 nM and the EC50 (huNav1.7α [8]) was 660 nM. It also gave an EC50 (huNav1.7α+β1-β2-β3) of 27 nM.

B6: F010301458 (VHH)
VHH: B3 VHH with A31R, Y56W, V57T, V60N, S96A, L101Q
notes: vs F0103265A11: A31R, Y56W, V60N, S93A, L103Q
In the case of B6, the “Bmax relative to '535” value (huNav1.7α+β1 [7]) is reported as 120%, the EC50 (huNav1.7α+β1 [7]) is reported as 2.2 nM and the EC50 (huNav1.7α+β1-β2-β3) is reported as 4.1 nM.

B7: F010301463 (VHH)
VHH: B3 VHH with A31R, V57T, V60N, S96A, L101Q
notes: vs F0103265A11: A31R, V60N, S93A, L103Q
With B7 the “Bmax relative to '535” value (huNav1.7α+β1 [7]) was 120%, the EC50 (huNav1.7α+β1 [7]) was 2.5 nM and the EC50 (huNav1.7α+β1-β2-β3) was 4.3 nM.

B8: F010300702 (bispecific antibody, V domains shown, not shown: small tags and cut ends)
VH: B1 VHH with P27S, V28I, Y50S, P53N, W55G, D56S, W57T, W96A
notes: also called F010300702 (n = 15); control bivalent ISVD
An MFI (huNav157chim14) of 27700 MFI was found for B8 in this work.

B9: F010300191 (bispecific antibody)
chain: EVQLVESGGGLVQPGGSLRLSCAASGSIFNINSMAWYRRAPGKQRELVASSTNGGSTNYADSVKGRFTISRDNAKRVYLQMNSLTPEDTAVYYCNALLQPSIYDISRTYWGQGTLVTVSSGGGGSGGGGSGGGGSGGGGSGGGGSGGGGSGGGGSGGGGSGGGGSGGGGSEVQLVESGGGLVQAGGSLRLSCAASGGTGRRYAMGWFRQAPGKEREIVAAIRWSAMTYYADDGKGRFTISRDNAKNTVYLQMNSLKPEDTAIYYCAYTWDYFKYDQVRAYRGWGQGTLVTVSSGAADYKDHDGDYKDHDIDYKDDDDKGAAHHHHHH
notes: also called F0103275B05-50GS-F0103240B04-FLAG3-HIS6
An IC50 (huNav1.7α + β1-β2-β3) of 0.1 nM, an IC50 (huNav1.7α [9]) of 67 nM and an IC50 (huNav1.7α + β1) of 110 nM were found for B9 in this work.

From patent US20240002497A1 (Merck Sharp & Dohme, published 2024)
